Results as given in US20260097113A1 (Pfizer, published 2026).

T1: RSV F protein of subtype A comprising a polypeptide of SEQ ID NO: 1 and a polypeptide of SEQ ID NO: 2 (RSV subtype A, UniProt P11209 137-513; P03420 26-109)
T1 construct: Stabilized prefusion F trimer made of three F2-F1 heterodimers; Produced recombinantly in CHO cells; also called RSV A; RSVA
T1 chain 1: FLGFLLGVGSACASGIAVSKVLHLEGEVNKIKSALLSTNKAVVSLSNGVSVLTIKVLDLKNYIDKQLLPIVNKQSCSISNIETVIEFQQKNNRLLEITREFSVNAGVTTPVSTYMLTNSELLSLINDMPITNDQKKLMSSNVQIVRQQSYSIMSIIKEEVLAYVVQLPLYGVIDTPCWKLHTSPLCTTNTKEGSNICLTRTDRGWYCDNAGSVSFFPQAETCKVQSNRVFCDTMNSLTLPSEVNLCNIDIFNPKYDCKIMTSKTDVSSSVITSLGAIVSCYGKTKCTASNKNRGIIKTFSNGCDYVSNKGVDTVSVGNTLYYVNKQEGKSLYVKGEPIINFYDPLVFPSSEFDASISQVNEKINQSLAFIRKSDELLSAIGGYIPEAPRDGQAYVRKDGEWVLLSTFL
T1 chain 2: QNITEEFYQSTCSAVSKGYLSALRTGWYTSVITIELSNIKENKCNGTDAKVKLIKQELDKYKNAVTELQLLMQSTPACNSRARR

T2: RSV F protein comprising a polypeptide of SEQ ID NO: 3 and a polypeptide of SEQ ID NO: 4 (RSV subtype B, UniProt O36634 137-513; O36634 26-109)
T2 construct: also called RSV B; RSVB
T2 chain 1: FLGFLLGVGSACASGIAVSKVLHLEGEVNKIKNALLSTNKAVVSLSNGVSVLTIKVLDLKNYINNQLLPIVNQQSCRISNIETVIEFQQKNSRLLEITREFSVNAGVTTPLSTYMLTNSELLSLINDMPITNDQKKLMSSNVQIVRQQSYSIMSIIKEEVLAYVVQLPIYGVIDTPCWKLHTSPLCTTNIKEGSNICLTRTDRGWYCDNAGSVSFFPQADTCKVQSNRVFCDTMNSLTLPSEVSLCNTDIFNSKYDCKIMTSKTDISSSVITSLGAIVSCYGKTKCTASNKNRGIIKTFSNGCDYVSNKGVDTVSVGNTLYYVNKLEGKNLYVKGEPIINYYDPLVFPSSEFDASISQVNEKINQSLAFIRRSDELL
T2 chain 2: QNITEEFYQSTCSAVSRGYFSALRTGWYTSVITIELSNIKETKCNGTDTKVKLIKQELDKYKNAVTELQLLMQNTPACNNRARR


Tests used:
[1] = target: RSV A + RSV B bivalent composition (RSV subtype A; RSV subtype B); test: AM14 Fab titration by SEC; High-Slow 2 cycle; 1 M 2-8°C (second value)
[2] = target: RSV A + RSV B bivalent composition (RSV subtype A; RSV subtype B); test: AM14 Fab titration by SEC; Low-Fast cycle; 1 M 25°C
[3] = target: RSV A + RSV B bivalent composition (RSV subtype A; RSV subtype B); test: AM14 Fab titration by SEC; High-Slow 1 cycle; 1 M 2-8°C
[4] = target: RSV A + RSV B bivalent composition (RSV subtype A; RSV subtype B); test: AM14 Fab titration by SEC; Target cycle; 8 M 25°C
[5] = target: RSV A + RSV B bivalent composition (RSV subtype A; RSV subtype B); test: AM14 Fab titration by SEC; Target cycle; 8 M 40°C
[6] = target: T1, RSV F protein of subtype A comprising a …; test: AM14 ELISA; F13 (pH 7, 100 mM NaCl, 4.5% sucrose); T0
[7] = target: T1, RSV F protein of subtype A comprising a …; test: AM14 ELISA; F1 (pH 8, 100 mM NaCl, 0% sucrose); 2 wk 25°C
[8] = target: T2, RSV F protein comprising a polypeptide …; test: AM14 prefusion assay relative to standard; RSV B 480 µg/mL, 2% sucrose + 4% mannitol; pre-lyo
[9] = target: T1, RSV F protein of subtype A comprising a …; test: AM14 ELISA; F2 (pH 8, 0 mM NaCl, 0% sucrose); 2 wk 25°C
[10] = target: T1, RSV F protein of subtype A comprising a …; test: AM14 ELISA; F15 (pH 6, 0 mM NaCl, 9% sucrose); 2 wk 25°C
[11] = target: T1, RSV F protein of subtype A comprising a …; test: AM14 ELISA; F19 (pH 7, 50 mM NaCl, 3% trehalose + 3% mannitol); 2 wk 25°C
[12] = target: T1, RSV F protein of subtype A comprising a …; test: AM14 ELISA; F4 (pH 6, 50 mM NaCl, 4.5% sucrose); 2 wk 25°C
[13] = target: T1, RSV F protein of subtype A comprising a …; test: AM14 ELISA; F9 (pH 8, 50 mM NaCl, 4.5% sucrose); 1 wk 5°C
[14] = target: T1, RSV F protein of subtype A comprising a …; test: AM14 ELISA; F11 (pH 7, 50 mM NaCl, 9.0% sucrose); 1 wk 5°C

| Molecule | Prefusion Content (%) [1] | Prefusion Content (%) [2] | Prefusion Content (%) [3] | Prefusion Content (%) [4] | Prefusion Content (%) [5] | AM14 prefusion content (%), relative to standard [6] | AM14 prefusion content (%), relative to standard [7] | AM14 prefusion content (%), relative to standard [8] | AM14 prefusion content (%), relative to standard [9] | AM14 prefusion content (%), relative to standard [10] | AM14 prefusion content (%), relative to standard [11] | AM14 prefusion content (%), relative to standard [12] | AM14 prefusion content (%), relative to standard [13] | AM14 prefusion content (%), relative to standard [14] |
| --- | --- | --- | --- | --- | --- | --- | --- | --- | --- | --- | --- | --- | --- | --- |
| AM14 Fab | 65% | 63% | 52% | 75% | 67% |  |  |  |  |  |  |  |  |  |
| AM14 (trimeric prefusion specific antibody of the AM14 ELISA) (antibody, V domains shown, Antibody as used in the AM14 ELISA, detected with an HRP-labeled secondary antibody) VH: EVQLVESGGGVVQPGRSLRLSCAASGFSFSHYAMHWVRQAPGKGLEWVAVISYDGENTYYADSVKGRFSISRDNSKNTVSLQMNSLRPEDTALYYCARDRIVDDYYYYGMDVWGQGATVTVSS VL: DIQMTQSPSSLSASVGDRVTITCQASQDIKKYLNWYHQKPGKVPELLMHDASNLETGVPSRFSGRGSGTDFTLTISSLQPEDIGTYYCQQYDNLPPLTFGGGTKVEIKR |  |  |  |  |  | 97% | 93% | 90% | 56% | 91% | 84% | 86% | 94% | 101% |
